Results taken from patent US20190060473A1, “HSP90 INHIBITOR DRUG CONJUGATES” (priority 2016, published 2019).
Like-named read-outs stand apart in the source and are kept apart here.

Experiments:
[1] = Metabolic stability in mouse whole blood (LC-MS/MS); format: in vitro ADME; conditions: for Mouse blood stability 1 h (% remaining): 10 μM
Experimental: Metabolic stability of various HDCs was tested in mouse blood. All compounds were tested at a concentration of 10 μM. The time dependent disappearance of test compound in mouse whole blood, and the release of the compound qualitatively as determined by liquid chromatography tandem mass spectrometry (LC-MS/MS), was tested at time points of 15 minutes, 30 minutes, 45 minutes and 1 hour. All compounds were tested in duplicate, and the average was taken. The results in Table 2 show the percent of test compound remaining after 1 hour.

[2] = system: HER2 expression in BT-474 human breast cancer cells; experiment: In-Cell Western assay (ICW) for HER2 expression in BT-474 cells; format: cell-based
Experimental: The HDCs as described herein were used in various experiments to determine their activity and properties, such as binding affinity and stability in blood. An in-Cell Western assay (ICW) for HER2 expression was carried out in BT-474 human breast cancer cells. BT-474 cells were seeded in 96-well plates at a density of 20,000 cells per well. Twenty-four hours after plating, cells were dosed with graded concentrations of HDCs using 3-fold serial dilutions and incubated for 24 h. Growth media containing drug was aspirated off. Cells were then fixed in 4% paraformaldehyde for 20 min and washed three times in 0.1% Triton X-100. After blocking for 1.5 h in Odyssey Blocking Buffer (LI-COR, Lincoln, Nebr., USA), cells were incubated with primary HER2 antibody overnight at 4° C. Wells were washed three times with 0.1% Tween-20 and incubated in secondary antibody (LI-COR, Lincoln, Nebr., USA) and DRAQ5 (CST, Beverly, Mass., USA) for 1 h. Following 3 final washes with 0.1% Tween-20, antibody-antigen complexes were visualized using the Odyssey system. For quantification, HER2 signal was normalized to DRAQ5 flourescent probe.

[3] = mouse whole blood, percent of test compound remaining after 1 hour, average of duplicate
[4] = BT-474 cells, 24 h incubation, 3-fold serial dilutions, HER2 signal normalized to DRAQ5, read-out: HER2 (ICW)

For `CCNC(=O)c1nnc(-c2cc(C(C)C)c(O)cc2O)n1-c1ccc(CN2CCC(C(=O)NC3(C(=O)OC[C@@H](NC(=O)c4cc(-c5cc(NC(C)C)ncc5Cl)c[nH]4)c4cccc(Cl)c4)CC3)CC2)c(F)c1` [SDC-TRAP-0507, (S)-2-(4-(5-chloro-2-(isopropylamino)pyridin-4-yl)-1H-pyrrole-2-carboxamido)-2-(3-chlorophenyl)ethyl-(1-(4-(3-(2,4-dihydroxy-5-isopropylphenyl)-5-(ethylcarbamoyl)-4H-1,2,4-triazol-4-yl)-2-fluorobenzyl)piperidine-4-carboxamido)cyclopropanecarboxylate], the “Mouse blood stability 1 h (% remaining)” value [1, 3] was 105% and the IC50 [2, 4] was 304 nM.

For `CC(C)Nc1cc(-c2c[nH]c(C(=O)N[C@H](COC(=O)C3(NC(=O)CCn4ccc5cc(-n6c(O)nnc6-c6cc(C(C)C)c(O)cc6O)ccc54)CC3)c3cccc(Cl)c3)c2)c(Cl)cn1` [SDC-TRAP-0508, (S)-2-(4-(5-chloro-2-(isopropylamino)pyridin-4-yl)-1H-pyrrole-2-carboxamido)-2-(3-chlorophenyl)ethyl 1-(3-(5-(3-(2,4-dihydroxy-5-isopropylphenyl)-5-hydroxy-4H-1,2,4-triazol-4-yl)-1H-indol-1-yl)propanamido)cyclopropanecarboxylate], the “Mouse blood stability 1 h (% remaining)” value ([1]; mouse, blood, 1 h) was 32.4% and the IC50 [2, 4] was 2330 nM.

In the case of `CC(C)Nc1cc(-c2c[nH]c(C(=O)N[C@H](COC(=O)C3(NC(=O)C4CCN(Cc5ccc(-n6c(O)nnc6-c6cc(C(C)C)c(O)cc6O)cc5F)CC4)CC3)c3cccc(Cl)c3)c2)c(Cl)cn1` [SDC-TRAP-0509, (S)-2-(4-(5-chloro-2-(isopropylamino)pyridin-4-yl)-1H-pyrrole-2-carboxamido)-2-(3-chlorophenyl)ethyl 1-(1-(4-(3-(2,4-dihydroxy-5-isopropylphenyl)-5-hydroxy-4H-1,2,4-triazol-4-yl)-2-fluorobenzyl)piperidine-4-carboxamido)cyclopropanecarboxylate], the “Mouse blood stability 1 h (% remaining)” value [1, 3] is reported as 86.9% and the IC50 [2, 4] is reported as 2690 nM.

`CC(C)Nc1cc(-c2c[nH]c(C(=O)N[C@H](COC(=O)C3CCN(Cc4ccc(-n5c(O)nnc5-c5cc(C(C)C)c(O)cc5O)cc4F)CC3)c3cccc(Cl)c3)c2)c(Cl)cn1` [SDC-TRAP-0517, (S)-2-(4-(5-chloro-2-(isopropylamino)pyridin-4-yl)-1H-pyrrole-2-carboxamido)-2-(3-chlorophenyl)ethyl 1-(4-(3-(2,4-dihydroxy-5-isopropylphenyl)-5-hydroxy-4H-1,2,4-triazol-4-yl)-2-fluorobenzyl)piperidine-4-carboxylate] showed an IC50 [2, 4] of 202 nM.

In the case of `CCNC(=O)c1nnc(-c2cc(C(C)C)c(O)cc2O)n1-c1ccc(CN2CCC(C(=O)OC[C@@H](NC(=O)c3cc(-c4cc(NC(C)C)ncc4Cl)c[nH]3)c3cccc(Cl)c3)CC2)c(F)c1` [SDC-TRAP-0518, (S)-2-(4-(5-chloro-2-(isopropylamino)pyridin-4-yl)-1H-pyrrole-2-carboxamido)-2-(3-chlorophenyl)ethyl 1-(4-(3-(2,4-dihydroxy-5-isopropylphenyl)-5-(ethylcarbamoyl)-4H-1,2,4-triazol-4-yl)-2-fluorobenzyl)piperidine-4-carboxylate], the IC50 [2, 4] is reported as 104 nM.

For `CC(C)Nc1cc(-c2c[nH]c(C(=O)N[C@H](COC(=O)[C@@H](C)NC(=O)C3CCN(Cc4ccc(-n5c(O)nnc5-c5cc(C(C)C)c(O)cc5O)cc4F)CC3)c3cccc(Cl)c3)c2)c(Cl)cn1` [SDC-TRAP-0519], the IC50 [2, 4] was 1650 nM.

With `CCNC(=O)c1nnc(-c2cc(C(C)C)c(O)cc2O)n1-c1ccc(N(C)C2CCN(C(=O)CCC(=O)OC[C@H](O)Cn3cnc4c(c(Nc5ccc(I)cc5F)c(F)c(=O)n4C)c3=O)CC2)nc1` [SDC-TRAP-0525, (R)-3-(6-fluoro-5-((2-fluoro-4-iodophenyl)amino)-8-methyl-4,7-dioxo-7,8-dihydropyrido[2,3-d]pyrimidin-3(4H)-yl)-2-hydroxypropyl 4-(4-((5-(3-(2,4-dihydroxy-5-isopropylphenyl)-5-(ethylcarbamoyl)-4H-1,2,4-triazol-4-yl)pyridin-2-yl)(methyl)amino)piperidin-1-yl)-4-oxobutanoate] the “Mouse blood stability 1 h (% remaining)” value [1, 3] was 10.8%.

For `CC(C)c1cc(-c2nnc(O)n2-c2ccc(CN3CCC(C(=O)N4CC[C@H](C(=O)OC[C@H](O)Cn5cnc6c(c(Nc7ccc(I)cc7F)c(F)c(=O)n6C)c5=O)C4)CC3)c(F)c2)c(O)cc1O` [SDC-TRAP-0528], the “Mouse blood stability 1 h (% remaining)” value [1, 3] was 0%.

With `CCNC(=O)c1nnc(-c2cc(C(C)C)c(O)cc2O)n1-c1ccc(C(=O)N[C@H](C(=O)N[C@@H](CC(C)C)C(=O)N(C)[C@@H](C(=O)N[C@H](C(=O)N(C)C([C@@H](C)CC)[C@@H](CC(=O)N2CCC[C@@H]2[C@@H](OC)[C@@H](C)C(=O)N[C@@H](C)[C@H](O)c2ccccc2)OC)C(C)C)C(C)C)C(C)C)cc1` (stereo partly drawn) [SDC-TRAP-0538, 4-(4-(((3R,7S,10R,13S,16S)-4-((S)-sec-butyl)-3-(2-((R)-2-((1S,2R)-3-(((1R,2S)-1-hydroxy-1-phenylpropan-2-yl)amino)-1-methoxy-2-methyl-3-oxopropyl)pyrrolidin-1-yl)-2-oxoethyl)-13-isobutyl-7,10-diisopropyl-5,11,17-trimethyl-6,9,12,15-tetraoxo-2-oxa-5,8,11,14-tetraazaoctadecan-16-yl)carbamoyl)phenyl)-5-(2,4-dihydroxy-5-isopropylphenyl)-N-ethyl-4H-1,2,4-triazole-3-carboxamide] the remaining at 1 h, 10 μM [1, 3] was 118%.

For `CCNC(=O)c1nnc(-c2cc(C(C)C)c(O)cc2O)n1-c1ccc(C(=O)N[C@@H](CC(C)C)C(=O)N[C@@H](CC(C)C)C(=O)N(C)[C@@H](C(=O)N[C@H](C(=O)N(C)C([C@@H](C)CC)[C@@H](CC(=O)N2CCC[C@@H]2[C@@H](OC)[C@@H](C)C(=O)N[C@@H](C)[C@H](O)c2ccccc2)OC)C(C)C)C(C)C)cc1` (stereo partly drawn) [SDC-TRAP-0539, 4-(4-(((3R,7S,10R,13S,16S)-4-((S)-sec-butyl)-3-(2-((R)-2-((1S,2R)-3-(((1R,2S)-1-hydroxy-1-phenylpropan-2-yl)amino)-1-methoxy-2-methyl-3-oxopropyl)pyrrolidin-1-yl)-2-oxoethyl)-13-isobutyl-7,10-diisopropyl-5,11,18-trimethyl-6,9,12,15-tetraoxo-2-oxa-5,8,11,14-tetraazanonadecan-16-yl)carbamoyl)phenyl)-5-(2,4-dihydroxy-5-isopropylphenyl)-N-ethyl-4H-1,2,4-triazole-3-carboxamide], the remaining at 1 h, 10 μM [1, 3] was 106%.

With `CCNC(=O)c1nnc(-c2cc(C(C)C)c(O)cc2O)n1-c1ccc(C(=O)N[C@H](C(=O)N[C@@H](CCCNC(N)=O)C(=O)N(C)[C@@H](C(=O)N[C@H](C(=O)N(C)C([C@@H](C)CC)[C@@H](CC(=O)N2CCC[C@@H]2[C@@H](OC)[C@@H](C)C(=O)N[C@@H](C)[C@H](O)c2ccccc2)OC)C(C)C)C(C)C)C(C)C)cc1` (stereo partly drawn) [SDC-TRAP-0540, 4-(4-(((3R,7S,10R,13S,16S)-4-((S)-sec-butyl)-3-(2-((R)-2-((1S,2R)-3-(((1R,2S)-1-hydroxy-1-phenylpropan-2-yl)amino)-1-methoxy-2-methyl-3-oxopropyl)pyrrolidin-1-yl)-2-oxoethyl)-7,10-diisopropyl-5,11,17-trimethyl-6,9,12,15-tetraoxo-13-(3-ureidopropyl)-2-oxa-5,8,11,14-tetraazaoctadecan-16-yl)carbamoyl)phenyl)-5-(2,4-dihydroxy-5-isopropylphenyl)-N-ethyl-4H-1,2,4-triazole-3-carboxamide] the remaining at 1 h, 10 μM [1, 3] was 55.5%.

With `CC(C)c1cc(-c2n[nH]c(=O)n2-c2ccc3c(ccn3C)c2)c(O)cc1O` [ganetespib, reference compound] the IC50 ([2]; Homo sapiens, BT-474, 24 h, read-out: HER2 (ICW, nM)) was 37 nM.
